Measurements from IntAct's records for PubMed 25982527.

B1: Mitogen-activated protein kinase kinase kinase 3 (Homo sapiens), Q99759 (parent)
chain: MDEQEALNSIMNDLVALQMNRRHRMPGYETMKNKDTGHSNRQSDVRIKFEHNGERRIIAFSRPVKYEDVEHKVTTVFGQPLDLHYMNNELSILLKNQDDLDKAIDILDRSSSMKSLRILLLSQDRNHNSSSPHSGVSRQVRIKASQSAGDINTIYQPPEPRSRHLSVSSQNPGRSSPPPGYVPERQQHIARQGSYTSINSEGEFIPETSEQCMLDPLSSAENSLSGSCQSLDRSADSPSFRKSRMSRAQSFPDNRQEYSDRETQLYDKGVKGGTYPRRYHVSVHHKDYSDGRRTFPRIRRHQGNLFTLVPSSRSLSTNGENMGLAVQYLDPRGRLRSADSENALSVQERNVPTKSPSAPINWRRGKLLGQGAFGRVYLCYDVDTGRELASKQVQFDPDSPETSKEVSALECEIQLLKNLQHERIVQYYGCLRDRAEKTLTIFMEYMPGGSVKDQLKAYGALTESVTRKYTRQILEGMSYLHSNMIVHRDIKGANILRDSAGNVKLGDFGASKRLQTICMSGTGMRSVTGTPYWMSPEVISGEGYGRKADVWSLGCTVVEMLTEKPPWAEYEAMAAIFKIATQPTNPQLPSHISEHGRDFLRRIFVEARQRPSAEELLTHHFAQLMY

Variants of: B1
Conditions: with CCM2, Q9BSQ5-1
CCM2, Q9BSQ5-1, sequence (Q9BSQ5 whole entry): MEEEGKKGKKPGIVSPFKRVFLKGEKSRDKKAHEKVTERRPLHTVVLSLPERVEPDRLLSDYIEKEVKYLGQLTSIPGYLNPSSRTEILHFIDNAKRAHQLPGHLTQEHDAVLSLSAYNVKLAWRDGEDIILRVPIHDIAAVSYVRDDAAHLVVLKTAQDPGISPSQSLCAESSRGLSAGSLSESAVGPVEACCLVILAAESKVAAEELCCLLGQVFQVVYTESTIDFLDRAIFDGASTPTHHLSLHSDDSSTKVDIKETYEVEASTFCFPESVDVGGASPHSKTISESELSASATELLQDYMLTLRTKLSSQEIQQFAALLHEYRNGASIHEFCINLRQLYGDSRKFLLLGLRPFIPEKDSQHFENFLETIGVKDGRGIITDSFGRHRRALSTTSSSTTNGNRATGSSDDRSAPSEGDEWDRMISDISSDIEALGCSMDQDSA

Effect of a mutation on the interaction, disrupting interaction strength:
I10D
L17D
L14D
L7D
